{
  "source": "patent US20190142971A1",
  "about": "“FORMULATION AND DELIVERY OF MODIFIED NUCLEOSIDE, NUCLEOTIDE, AND NUCLEIC ACID COMPOSITIONS” (ModernaTX, Inc., priority 2013, published 2019)",
  "molecules": {"B1": {"name": "EPO: modified mRNA encoding human erythropoietin, SEQ ID NO: 7, Cap1, fully modified with 5-methylcytosine and pseudouridine; LNP NPA-060-1 in Examples 17-22 (nucleic acid)", "chain": "GGGAAAUAAGAGAGAAAAGAAGAGUAAGAAGAAAUAUAAGAGCCACCAUGGGAGUGCACGAGUGUCCCGCGUGGUUGUGGUUGCUGCUGUCGCUCUUGAGCCUCCCACUGGGACUGCCUGUGCUGGGGGCACCACCCAGAUUGAUCUGCGACUCACGGGUACUUGAGAGGUACCUUCUUGAAGCCAAAGAAGCCGAAAACAUCACAACCGGAUGCGCCGAGCACUGCUCCCUCAAUGAGAACAUUACUGUACCGGAUACAAAGGUCAAUUUCUAUGCAUGGAAGAGAAUGGAAGUAGGACAGCAGGCCGUCGAAGUGUGGCAGGGGCUCGCGCUUUUGUCGGAGGCGGUGUUGCGGGGUCAGGCCCUCCUCGUCAACUCAUCACAGCCGUGGGAGCCCCUCCAACUUCAUGUCGAUAAAGCGGUGUCGGGGCUCCGCAGCUUGACGACGUUGCUUCGGGCUCUGGGCGCACAAAAGGAGGCUAUUUCGCCGCCUGACGCGGCCUCCGCGGCACCCCUCCGAACGAUCACCGCGGACACGUUUAGGAAGCUUUUUAGAGUGUACAGCAAUUUCCUCCGCGGAAAGCUGAAAUUGUAUACUGGUGAAGCGUGUAGGACAGGGGAUCGCUGAUAAGCUGCCUUCUGCGGGGCUUGCCUUCUGGCCAUGCCCUUCUUCUCUCCCUUGCACCUGUACCUCUUGGUCUUUGAAUAAAGCCUGAGUAGGAAG", "modifications": "Cap1, 5-methylcytosine, pseudouridine"}, "B2": {"name": "G-CSF: modified mRNA encoding human G-CSF, SEQ ID NO: 4, Cap1, fully modified with 5-methylcytosine and pseudouridine; LNP-formulated in Examples 16-22 (nucleic acid)", "chain": "GGGAAAUAAGAGAGAAAAGAAGAGUAAGAAGAAAUAUAAGAGCCACCAUGGCCGGUCCCGCGACCCAAAGCCCCAUGAAACUUAUGGCCCUGCAGUUGCUGCUUUGGCACUCGGCCCUCUGGACAGUCCAAGAAGCGACUCCUCUCGGACCUGCCUCAUCGUUGCCGCAGUCAUUCCUUUUGAAGUGUCUGGAGCAGGUGCGAAAGAUUCAGGGCGAUGGAGCCGCACUCCAAGAGAAGCUCUGCGCGACAUACAAACUUUGCCAUCCCGAGGAGCUCGUACUGCUCGGGCACAGCUUGGGGAUUCCCUGGGCUCCUCUCUCGUCCUGUCCGUCGCAGGCUUUGCAGUUGGCAGGGUGCCUUUCCCAGCUCCACUCCGGUUUGUUCUUGUAUCAGGGACUGCUGCAAGCCCUUGAGGGAAUCUCGCCAGAAUUGGGCCCGACGCUGGACACGUUGCAGCUCGACGUGGCGGAUUUCGCAACAACCAUCUGGCAGCAGAUGGAGGAACUGGGGAUGGCACCCGCGCUGCAGCCCACGCAGGGGGCAAUGCCGGCCUUUGCGUCCGCGUUUCAGCGCAGGGCGGGUGGAGUCCUCGUAGCGAGCCACCUUCAAUCAUUUUUGGAAGUCUCGUACCGGGUGCUGAGACAUCUUGCGCAGCCGUGAAGCGCUGCCUUCUGCGGGGCUUGCCUUCUGGCCAUGCCCUUCUUCUCUCCCUUGCACCUGUACCUCUUGGUCUUUGAAUAAAGCCUGAGUAGGAAG", "modifications": "Cap1, 5-methylcytosine, pseudouridine"}},
  "key": {"[1]": {"system": "peripheral blood mononuclear cells (PBMC)", "test": "Example 56: percent modification, PBMC G-CSF ELISA (Table 85)", "assay_type": "cell-based, human", "conditions": "22 hours after transfection", "method": "(§1) 480 ng of G-CSF mRNA modified with 5-methylcytosine (5mC) and pseudouridine (pseudoU) or unmodified G-CSF mRNA was transfected with 0.4 uL of Lipofectamine 2000 into peripheral blood mononuclear cells (PBMC) from three normal blood donors (D1, D2, and D3). […] The supernatant was harvested and run by ELISA 22 hours after transfection to determine the protein expression. The expression of IFN-alpha and TNF-alpha may be a secondary effect from the transfection of the G-CSF mRNA."}, "Balb-C mice": {"system": "Balb-C mice", "test": "Example 117: repeat dose luciferase KC2 LNP IM, IV, live and tissue imaging (Tables 192-200)", "assay_type": "in vivo", "conditions": "luciferase mRNA in PBS, IM 2.50 mg/kg", "method": "“TM-2” means the groups were administered with 2 doses, administered 24 hours apart, “IV” means intravenous administration, “TV-1” means the groups were administered a single dose tail vein injection and “TV-2” means the groups were administered with 2 doses, administered 7 days apart. 2 groups of untreated Balb-C mice (n=3) were also evaluated. Groups 1, 3 and 7 were injected in the right leg and administration was repeated but into the left leg with 24 hours between injections. Groups 2, 4, and 9 were administered the mRNA in the right leg followed by repeat administration in the right leg with 24 hours between injections for Group 2 and 7 days between injections for Groups 4 and 9.\nThe final lipid molar ratio ranges of DLin-KC2-DMA, DSPC, cholesterol and PEG-DMG for the KC2 LNP are outlined in Table 194. The weight ratio of total lipid to mRNA was 20:1, the mean size was 95 nm (PDI: 0.11), the zeta at pH 7.4 was −1.0 mV and the encapsulation (RiboGreen) was essentially 100%.\nLive imaging mice were imaged at 8 hours post-administration of each dose of luciferase modified mRNA and tissue imaging mice imaged 8 post-administration of the final dose of luciferase modified mRNA. Twenty minutes prior to imaging, the mice were injected intraperitoneally with a D-luciferin solution at 150 mg/kg. Animals were then anesthetized and images were acquired with an IVIS Lumina II imaging system (Perkin Elmer). For the tissue imaging mice (Groups 6-9), the mice were dissected twenty minutes after the D-luciferin injection and organs and tissue were subsequently imaged (muscle around injection site, liver and spleen for Groups 6 and 7 and were subsequently imaged the liver and spleen for Groups 8 and 9). Bioluminescence was measured as total flux (photons/second) of the mid-section and the entire mouse (IV administration), the injection site (IM administration), or the entire organ (tissue imaging)."}, "C57BL/6": {"system": "C57BL/6", "test": "Example 116: mouse EPO mRNA in mannitol multi-dose, serum EPO (Table 186)", "assay_type": "in vivo, mice", "conditions": "mouse EPO mRNA in 5% isotonic Mannitol, IM 2.5 mg/kg per dose", "method": "Serum was collected from the mice at 24 hours post the second, fourth, sixth and eighth doses."}, "mice": {"system": "mice", "test": "Example 41: IV lipoplexed G-CSF mRNA in mice, neutrophil count (Table 66)", "assay_type": "in vivo", "conditions": "IV 10% lipoplex, 50 ug at days 0, 2, 4; day 5", "method": "Neutrophils were measured at days 1, 5 and 8. Controls included non-specific mammalian RNA or the formulation buffer alone (F.Buffer). The mice were bled at days 1, 5 and 8 to determine the effect of mRNA-encoded human G-CSF to increase neutrophil count. The dosing regimen is shown in Table 66 as are the resulting neutrophil counts (thousands/uL; K/uL)."}, "human PBMC": {"system": "human PBMC", "test": "Example 45: PBMC transfection, IFN-alpha ELISA (Table 72)", "assay_type": "cell-based", "method": "The plates were then incubated at 37 C.\nEach condition was done in duplicate.\nShown in Tables 71 and 72 are the average from 2 separate PBMC donors of the G-CSF and IFN-alpha production over time as measured by specific ELISA."}, "HEK293 cells": {"system": "HEK293 cells", "test": "Example 46B: percent modification, HEK293 G-CSF ELISA (Table 75)", "assay_type": "cell-based, Human"}, "[2]": {"system": "peripheral blood mononuclear cells (PBMC)", "test": "Example 56: PBMC IFN-alpha and TNF-alpha ELISA and protein/cytokine ratio (Tables 86, 87)", "assay_type": "cell-based, human", "method": "as §1\nAs mentioned above, using PBMC as an in vitro assay system it is possible to establish a correlation between translation (in this case G-CSF protein production) and cytokine production (in this case exemplified by IFN-alpha protein production). Better protein production is correlated with lower induction of innate immune activation pathway, and the percentage modification of a chemistry can be judged favorably based on this ratio (Table 87)."}, "BALB/C mice": {"system": "BALB/C mice", "test": "Example 59: G-CSF mRNA IM in mice, serum human G-CSF and mouse IFN-alpha ELISA (Table 93)", "assay_type": "in vivo"}, "[3]": {"test": "Example 61: storage stability of G-CSF mRNA, gel electrophoresis (Bio-Rad EXPERION)", "assay_type": "physicochemical", "method": "Stability experiments were conducted to obtain a better understanding of storage conditions to retain the integrity of modified RNA. […] After the mRNA had been stored for 0 hours, 2 hours, 6 hours, 24 hours, 48 hours, 5 days and 14 days, the mRNA was analyzed by gel electrophoresis using a Bio-Rad EXPERION™ system. The modified, unmodified and lipoplexed G-CSF mRNA was also stored in RNASTABLE® (Biomatrica, Inc. San Diego, Calif.) at 40° C. or water at −80° C. or 40° C. for 35 days before being analyzed by gel electrophoresis.\nmRNA samples stored at 4° C., 25° C. and 37° C. were stored in 1×TE buffer or the formulation buffer (150 mM sodium chloride, 2 mM calcium chloride, 2 mM phosphate, 0.5 mM EDTA at a pH of 6.5). The mRNA stored at 4° C. was stable to at least 60 days in both the TE and formulation buffer. At 25° C. the mRNA in formulation buffer was stable out to 14 days and the TE buffer was stable out to at least 6 days. Storage of mRNA in the formulation buffer at 37° C. was stable to 6 days compared to the TE buffer which was stable only until 4 days."}, "[4]": {"conditions": "I.M., 200 ug/mouse (R848 75 ug/mouse), 50 ul, 8 hours after dosing"}},
  "data": [
    {"molecule": "Luciferase: luciferase mRNA, SEQ ID NO: 14, Cap1, fully modified with 5-methylcytosine and pseudouridine", "values": [
      {"measurement": "G-CSF Expression", "setting": "[1]; PBMC donor D1, 480 ng mRNA", "value": 90.2, "unit": "pg/mL"},
      {"measurement": "G-CSF Expression", "setting": "[1]; PBMC donor D2, 480 ng mRNA", "value": 0.0, "unit": "pg/mL"},
      {"measurement": "G-CSF Expression", "setting": "[1]; PBMC donor D3, 480 ng mRNA", "value": 22.1, "unit": "pg/mL"},
      {"measurement": "Expression (Flux (p/s))", "setting": "Balb-C mice; Dose 1, Dosed Right limb", "value": "6.71E+06", "unit": "p/s"},
      {"measurement": "Expression (Flux (p/s))", "setting": "Balb-C mice; Dose 1, Undosed Left limb", "value": "2.28E+05", "unit": "p/s"},
      {"measurement": "Expression (Flux (p/s))", "setting": "Balb-C mice; Dose 2, Dosed Left limb", "value": "1.16E+07", "unit": "p/s"},
      {"measurement": "Expression (Flux (p/s))", "setting": "Balb-C mice; Dose 2, Undosed Right limb", "value": "2.44E+07", "unit": "p/s"}
    ]},
    {"molecule": "B1", "values": [
      {"measurement": "Eighth Dose EPO", "setting": "C57BL/6; serum 24 hours post eighth dose", "value": 239.3, "unit": "pg/mL"},
      {"measurement": "Fourth Dose EPO", "setting": "C57BL/6; serum 24 hours post fourth dose", "value": 483.4, "unit": "pg/mL"},
      {"measurement": "Second Dose EPO", "setting": "C57BL/6; serum 24 hours post second dose", "value": 334.7, "unit": "pg/mL"},
      {"measurement": "Sixth Dose EPO", "setting": "C57BL/6; serum 24 hours post sixth dose", "value": 328.9, "unit": "pg/mL"}
    ]},
    {"molecule": "B2", "values": [
      {"measurement": "increase in neutrophil count above control", "setting": "mice", "value": "four to five fold increase"},
      {"measurement": "IFN-alpha / cytokine production", "setting": "human PBMC", "value": "induced IFN-alpha, TNF-alpha and IP10"},
      {"measurement": "half-life of mRNA", "setting": "HEK293 cells", "value": "8 to 10", "unit": "h"},
      {"measurement": "protein/cytokine ratio vs natural G-CSF mRNA", "setting": "[2]; IFN-alpha", "value": 100, "unit": "fold"},
      {"measurement": "protein/cytokine ratio vs natural G-CSF mRNA", "setting": "[2]; TNF-alpha", "value": 27, "unit": "fold"},
      {"measurement": "G-CSF protein (human, serum)", "setting": "BALB/C mice; [4]", "value": 356.5, "unit": "pg/mL"},
      {"measurement": "IFN-alpha expression (mouse, serum)", "setting": "BALB/C mice; [4]", "value": 8.87, "unit": "pg/mL"},
      {"measurement": "PC Ratio (Protein: Cytokine Ratio)", "setting": "BALB/C mice; I.M., 200 ug/mouse (R848 75 ug/mouse), 8 hours after dosing", "value": 40},
      {"measurement": "mouse IFN-alpha in the serum (cytokine response)", "setting": "BALB/C mice; IM, 8 hours", "value": "low but detectable cytokine response"},
      {"measurement": "freeze/thaw cycles tolerated", "setting": "[3]", "value": 12, "unit": "cycles"},
      {"measurement": "stable out to", "setting": "[3]; stored at 25° C., with or without lipoplex", "value": 120, "unit": "h"},
      {"measurement": "stable out to", "setting": "[3]; stored at 37° C.", "value": 24, "unit": "h"},
      {"measurement": "stable out to", "setting": "[3]; stored at 50° C.", "value": 6, "unit": "h"}
    ]}
  ]
}
